Data as given in patent US20230416329A1, “A PEPTIDE WITH DISULFIDE BONDS AND INHIBITORY ACTIVITY AGAINST SERINE PROTEASES, DERIVED HYBRID PEPTIDES THEREOF, AND USES THEREOF” (INSTITUTE OF MATERIA MEDICA , CHINESE ACADEMY OF MEDICAL …, priority 2020, published 2023).

Test system: P407-induced hyperlipidemia mice
Assay: Effect of Repatha on serum TC and LDL-C in P407-induced hyperlipidemia mice (model validation)
Format: in vivo, mouse
Description: Model preparation and validation: Normal ICR mice were fasted overnight with water ad libitum. The poloxamer 407 (P407, 500 mg/kg) was intraperitoneally injected on the next day. […] The clinical drug Repatha was injected subcutaneously at a dose of 40 mg/kg for 24 hours, followed by intraperitoneal injection of P407. The serum TC and LDL-C levels were measured 24 hours after injection of P407 (Table 25).

[1] = serum, Repatha 40 mg/kg subcutaneous, 24 hours after P407 injection

B1: Repatha: the clinical (marketed) drug Repatha, positive control in the P407 hyperlipidemia model (antibody, chains of the INN, looked up, V domains shown)
VH: EVQLVQSGAEVKKPGASVKVSCKASGYTLTSYGISWVRQAPGQGLEWMGWVSFYNGNTNYAQKLQGRGTMTTDPSTSTAYMELRSLRSDDTAVYYCARGYGMDVWGQGTTVTVSS
VL: ESALTQPASVSGSPGQSITISCTGTSSDVGGYNSVSWYQQHPGKAPKLMIYEVSNRPSGVSNRFSGSKSGNTASLTISGLQAEDEADYYCNSYTSTSMVFGGGTKLTVL
40 mg/kg s.c., P407 500 mg/kg i.p., ICR mice
  serum TC and LDL-C levels (in words): significantly reduced the serum TC and LDL-C levels
[1]
  LDL-C: 0.364 ± 0.097 mmol/L
  TC: 190.0 ± 36.6 mg/dL
